# Source: patent US20120316071A1 (published 2012)
# Residue numbers refer to the chain shown, from its start. Names may count otherwise.
# B1: Fab VH1-46_IGHD6-6*01_IGHJ1*01 S102A/S103P/S104F/H111F (APFF) & L6_IGKJ1*01 W94R (Fab, V domains shown)
# VH: QVQLVQSGAEVKKPGASVKVSCKASGYTFTSYYMHWVRQAPGQGLEWMGIINPSGGSTSYAQKFQGRVTMTRDTSTSTVYMELSSLRSEDTAVYYCAREEYAPFSAEYFQFWGQGTLVTVSS
# VL: EIVLTQSPATLSLSPGERATLSCRASQSVSSYLAWYQQKPGQAPRLLIYDASNRATGIPARFSGSGSGTDFTLTISSLEPEDFAVYYCQQRSNRPPWTFGQGTKVEIKR
# notes: Fab from E. coli; VH in Plasmid A (CH1, His6 and Flag tags), VL in Plasmid C (kappa CL); also called APFF & W94R
# B2: Fab VH1-46_IGHD6-6*01_IGHJ1*01 S102A/S103P/S104F/H111F (APFF) & L6_IGKJ1*01 W94L (Fab, V domains shown)
# VH: B1 VH
# VL: B1 VL with R94L
# notes: Fab from E. coli; VH in Plasmid A (CH1, His6 and Flag tags), VL in Plasmid C (kappa CL); also called APFF & W94L
# B3: Fab VH1-46_IGHD6-6*01_IGHJ1*01 S102A/S103P/S104F/H111F (APFF) & L6_IGKJ1*01 W94M (Fab, V domains shown)
# VH: B1 VH
# VL: B1 VL with R94M
# notes: Fab from E. coli; VH in Plasmid A (CH1, His6 and Flag tags), VL in Plasmid C (kappa CL); also called APFF & W94M
# B4: Fab VH1-46_IGHD6-6*01_IGHJ1*01 S102A/S103P/S104F/H111F (APFF) & L6_IGKJ1*01 W94S (Fab, V domains shown)
# VH: B1 VH
# VL: B1 VL with R94S
# notes: Fab from E. coli; VH in Plasmid A (CH1, His6 and Flag tags), VL in Plasmid C (kappa CL); also called APFF & W94S
# B5: Fab VH1-46_IGHD6-6*01_IGHJ1*01 S102A/S103P/S104F/H111F (APFF) & L6_IGKJ1*01 (Fab, V domains shown)
# VH: B1 VH
# VL: not shown
# notes: Tested as Fab expressed in E. coli; Heavy chain from Plasmid A (CH1, His6 and Flag tags), kappa light chain from Plasmid C (CL); also called H:APFF & L:wt
# B6: Fab VH1-46_IGHD6-6*01_IGHJ1*01 S102A/S103P/S104F/H111F S31A & L6_IGKJ1*01 (Fab, V domains shown)
# VH: B1 VH with S31A
# VL: not shown
# notes: Tested as Fab (CH1 with His6/Flag tags; kappa CL), expressed in E. coli; also called APFF S31A
# B7: Fab VH1-46_IGHD6-6*01_IGHJ1*01 S102A/S103P/S104F/H111F F29A & L6_IGKJ1*01 (Fab, V domains shown)
# VH: B1 VH with F29A
# VL: not shown
# notes: Tested as Fab (CH1 with His6/Flag tags; kappa CL), expressed in E. coli; also called APFF F29A
# B8: Fab VH1-46_IGHD6-6*01_IGHJ1*01 S102A/S103P/S104F/H111F T30A & L6_IGKJ1*01 (Fab, V domains shown)
# VH: B1 VH with T30A
# VL: not shown
# notes: Tested as Fab (CH1 with His6/Flag tags; kappa CL), expressed in E. coli; also called APFF T30A
# B9: Fab VH1-46_IGHD6-6*01_IGHJ1*01 S102A/S103P/S104F/H111F T28A & L6_IGKJ1*01 (Fab, V domains shown)
# VH: B1 VH with T28A
# VL: not shown
# notes: Tested as Fab (CH1 with His6/Flag tags; kappa CL), expressed in E. coli; also called APFF T28A
# B10: Fab VH1-46_IGHD6-6*01_IGHJ1*01 S102A/S103P/S104F/H111F Y33A & L6_IGKJ1*01 (Fab, V domains shown)
# VH: B1 VH with Y33A
# VL: not shown
# notes: Tested as Fab (CH1 with His6/Flag tags; kappa CL), expressed in E. coli; also called APFF Y33A
# Molecular target: T1, Recombinant Human DLL4 (human, UniProt Q9NR61 27-524)
# T1 construct: also called delta-like protein 4; rHuman DLL4
# Assay: ECL (MSD) multispot binding assay, DLL4 spotted on plate, Fab in solution
row,ECL signal,Binder
1,75800,B1
2,11600,B2
3,33800,B3
4,109000,B4

# Molecular target: T2, rHuman P-Cadherin/Fc Chimera, CF (R&D Systems Cat#861-PC) (human, UniProt P22223 108-654)
# T2 construct: Bought recombinant protein
# Assay: ECL Multispot (MSD) assay, antigen spotted on plate, 10 nM Fab;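 further: purified Fab bound to antigen spots for 1 h at 20 °C, then TAG detection antibody, electrochemiluminescence compared with each well's blank, ratio of 4 or more marks a hit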
row,ECL signal,Binder
1,347,B5

# Molecular target: T3, rHuman ErbB2/Fc Chimera, CF (R&D Systems Cat#1129-ER) (human, UniProt P04626 23-652)
# T3 construct: Bought recombinant protein
# Assay: as above
row,ECL signal,Binder
1,354,B5

# Molecular target: T4, Recombinant Human DLL4 (R&D Systems Cat#1506-D4/CF) (human, UniProt Q9NR61 27-524)
# T4 construct: Bought recombinant protein; also called delta-like protein 4; rHuman DLL4
# Assay: as above
row,ECL signal,Binder
1,78400,B5

# Molecular target: T5, rHuman EGF R/Fc Chimera, CF (R&D Systems Cat#344-ER) (human, UniProt P00533 25-645)
# T5 construct: Bought recombinant protein
# Assay: as above
row,ECL signal,Binder
1,383,B5

# Molecular target: T6, rHuman IGF-1 sR (insulin-like growth factor-1 soluble receptor), CF (R&D Systems Cat#391-GR) (human, UniProt P08069 31-932)
# T6 construct: Bought recombinant soluble receptor
# Assay: as above
row,ECL signal,Binder
1,397,B5

# Molecular target: T7, rHuman HGF R/c-MET/Fc Chimera, CF (R&D Systems Cat#358-MT/CF) (human, UniProt P08581 25-932)
# T7 construct: Bought recombinant protein; also called HGF R/Fc
# T7 sequence (P08581 25-932, change not shown): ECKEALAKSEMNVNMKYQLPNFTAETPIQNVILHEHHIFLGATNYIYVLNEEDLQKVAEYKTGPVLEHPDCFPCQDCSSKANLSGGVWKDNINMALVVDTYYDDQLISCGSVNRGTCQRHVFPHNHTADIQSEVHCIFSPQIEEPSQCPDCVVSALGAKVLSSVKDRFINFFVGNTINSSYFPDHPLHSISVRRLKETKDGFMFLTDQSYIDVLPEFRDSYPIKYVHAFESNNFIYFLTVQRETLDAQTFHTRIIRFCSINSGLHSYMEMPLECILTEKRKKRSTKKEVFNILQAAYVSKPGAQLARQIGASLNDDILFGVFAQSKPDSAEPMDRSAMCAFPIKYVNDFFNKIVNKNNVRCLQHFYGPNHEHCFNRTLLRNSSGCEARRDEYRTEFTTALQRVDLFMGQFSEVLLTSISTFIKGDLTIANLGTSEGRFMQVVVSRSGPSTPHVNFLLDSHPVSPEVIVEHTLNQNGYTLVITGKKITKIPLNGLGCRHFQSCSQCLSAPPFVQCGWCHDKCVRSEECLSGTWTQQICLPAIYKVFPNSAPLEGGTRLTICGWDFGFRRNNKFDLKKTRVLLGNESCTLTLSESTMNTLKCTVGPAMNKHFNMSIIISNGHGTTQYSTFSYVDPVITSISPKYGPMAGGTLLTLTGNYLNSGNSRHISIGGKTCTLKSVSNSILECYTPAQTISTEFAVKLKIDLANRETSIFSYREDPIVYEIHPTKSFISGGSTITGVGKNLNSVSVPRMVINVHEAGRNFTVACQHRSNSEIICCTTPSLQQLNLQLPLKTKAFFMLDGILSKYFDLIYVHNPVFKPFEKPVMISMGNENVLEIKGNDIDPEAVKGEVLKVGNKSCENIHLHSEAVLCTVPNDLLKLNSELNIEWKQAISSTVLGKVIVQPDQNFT
# Assay: as above
row,ECL signal,Binder
1,347,B5

# Molecular target: T8, Recombinant Human DLL4 (R&D Systems Cat#1506-D4/CF) (human, UniProt Q9NR61 27-524)
# T8 construct: Bought recombinant protein; also called delta-like protein 4; rHuman DLL4
# Assay: ELISA, DLL4 coated, 100 nM Fab, absorbance at 450 nm minus noise
row,ELISA (Signal-Noise),Binder
1,0.47,B6
2,0.67,B7
3,0.64,B8
4,0.77,B9
5,0.09,B10

# Molecular target: T4, Recombinant Human DLL4 (R&D Systems …)
# Assay: ECL (MSD) binding assay, DLL4 signal divided by blank, repeat experiment
row,Signal/Noise,Binder
1,694,B5

# Molecular target: T8, Recombinant Human DLL4 (R&D Systems …)
# Assay: ECL Multispot (MSD), DLL4 spotted, 10 nM Fab
row,ECL Signal/Noise,Binder
1,453,B6
2,190,B7
3,457,B8
4,334,B9
5,136,B10

# Molecular target: T4, Recombinant Human DLL4 (R&D Systems …)
# Assay: ECL (MSD) binding assay, immobilised DLL4, repeat experiment
row,ECL signal,Binder
1,197000,B5
